For this assay, the target named is Arabidopsis thaliana plant cysteine oxidase 5 (Arabidopsis thaliana) (UniProt Q9LXT4).
UniProt Q9LXT4, sequence (Q9LXT4 whole entry): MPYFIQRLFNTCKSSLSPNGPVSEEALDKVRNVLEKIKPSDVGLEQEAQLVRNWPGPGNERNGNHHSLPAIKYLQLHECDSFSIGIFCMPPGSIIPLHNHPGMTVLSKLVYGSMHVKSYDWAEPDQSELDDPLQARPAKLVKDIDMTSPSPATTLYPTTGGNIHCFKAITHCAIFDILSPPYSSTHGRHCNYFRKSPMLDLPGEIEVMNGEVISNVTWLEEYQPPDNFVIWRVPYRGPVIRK

Regarding “AtRAP2(2–15), 14-amino acid peptide corresponding to the methionine excised N terminus of AtRAP2.2 and AtRAP2.12”, the Km for AtRAP2(2–15); initial rates of N-terminal cysteine oxidation by LC-MS, Michaelis–Menten fit with substrate inhibition, atmospheric O2, pH 8.0, 25 °C was 0.16 mM.

Values taken from PMC6066304.
